In patent publication US20040259122A1 (MICHIGAN STATE UNIVERSITY, published 2004):

Key:
Experiment in all cases: yeast two-hybrid, growth in the presence of 3-AT
[1] = biological target: T1, Fcp1 (activation domain fusion prey) (UniProt Q03254 1-732)
T1 construct: not shown: not described
T1 sequence (looked up): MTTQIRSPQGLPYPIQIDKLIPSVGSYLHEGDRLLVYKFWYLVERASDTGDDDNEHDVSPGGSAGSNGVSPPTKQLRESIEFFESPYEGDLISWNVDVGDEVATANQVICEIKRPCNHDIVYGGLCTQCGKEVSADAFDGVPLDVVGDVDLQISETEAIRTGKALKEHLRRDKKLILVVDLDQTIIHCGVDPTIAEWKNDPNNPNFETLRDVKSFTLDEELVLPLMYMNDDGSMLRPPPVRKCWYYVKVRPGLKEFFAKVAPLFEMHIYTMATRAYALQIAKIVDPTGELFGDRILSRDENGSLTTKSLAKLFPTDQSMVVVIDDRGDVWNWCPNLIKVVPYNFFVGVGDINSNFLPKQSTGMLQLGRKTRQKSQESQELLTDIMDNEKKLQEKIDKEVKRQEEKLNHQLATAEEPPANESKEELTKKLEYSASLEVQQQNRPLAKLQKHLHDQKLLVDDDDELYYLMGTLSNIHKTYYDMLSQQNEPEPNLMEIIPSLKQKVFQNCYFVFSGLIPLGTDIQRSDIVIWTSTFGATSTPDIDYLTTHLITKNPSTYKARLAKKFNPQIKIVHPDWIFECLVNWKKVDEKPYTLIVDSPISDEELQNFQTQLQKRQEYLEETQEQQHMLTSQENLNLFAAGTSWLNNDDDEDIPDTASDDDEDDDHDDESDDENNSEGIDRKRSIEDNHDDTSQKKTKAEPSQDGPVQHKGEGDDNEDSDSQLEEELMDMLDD
Method: (§1) Identification of proteins that interact specifically with the phosphorylated CTD. […] Proteins that interact specifically with the CTD-Kin28 (wildtype) but neither of the other two baits are considered phosphorylated CTD-interacting proteins. Yeast strains containing one of the three baits and a variety of preys (activation domain fusion proteins) were tested for their ability to grow in the presence of different concentration of 3-AT. The ability to grow in such medium indicates stable interactions between the bait(s) and the prey(s). The following proteins (numbered 1-7) are considered phosphorylated CTD-interacting proteins: Fcp1 (a phosphatase known to act on phosphorylated CTD), Ssn8 (or Srb11, a component of the RNA polymerase II holoenzyme), Tfb3 (a component of the RNA polymerase II holoenzyme), Whi2 (a protein involved in cellular growth and a component of a protein phosphatase complex containing the Psr1 catalytic subunit), and three novel proteins (YMR181c, YPL229w, and YDR428c) whose functional links to CTD phosphorylation are novel. In addition, previously known (i.e. Ccl1 and Pcl10) and unknown (YDL100c) Kin28-interacting proteins were also identified in this screen (A-C). Several putative phosphorylated CTD interacting proteins are not labeled due to the current lack of the sequence information.

[2] = biological target: T2, Whi2 (activation domain fusion prey) (UniProt P12611 1-486)
T2 construct: not shown: not described
T2 sequence (looked up): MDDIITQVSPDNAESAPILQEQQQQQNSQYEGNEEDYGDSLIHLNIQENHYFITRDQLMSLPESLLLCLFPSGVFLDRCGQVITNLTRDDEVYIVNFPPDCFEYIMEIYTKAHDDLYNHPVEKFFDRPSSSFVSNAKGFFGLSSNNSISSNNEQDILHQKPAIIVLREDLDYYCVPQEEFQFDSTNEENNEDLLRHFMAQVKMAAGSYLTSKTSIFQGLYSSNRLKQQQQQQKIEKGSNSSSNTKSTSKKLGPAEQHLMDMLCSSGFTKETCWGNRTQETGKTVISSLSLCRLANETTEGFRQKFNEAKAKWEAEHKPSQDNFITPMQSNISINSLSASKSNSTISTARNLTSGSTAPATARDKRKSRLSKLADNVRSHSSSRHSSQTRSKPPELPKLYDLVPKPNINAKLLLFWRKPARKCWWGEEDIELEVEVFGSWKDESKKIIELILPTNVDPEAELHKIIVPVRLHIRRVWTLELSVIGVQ
Method: as §1

[3] = biological target: T3, Tfb3 (activation domain fusion prey) (UniProt Q03290 1-321)
T3 construct: not shown: not described
T3 sequence (looked up): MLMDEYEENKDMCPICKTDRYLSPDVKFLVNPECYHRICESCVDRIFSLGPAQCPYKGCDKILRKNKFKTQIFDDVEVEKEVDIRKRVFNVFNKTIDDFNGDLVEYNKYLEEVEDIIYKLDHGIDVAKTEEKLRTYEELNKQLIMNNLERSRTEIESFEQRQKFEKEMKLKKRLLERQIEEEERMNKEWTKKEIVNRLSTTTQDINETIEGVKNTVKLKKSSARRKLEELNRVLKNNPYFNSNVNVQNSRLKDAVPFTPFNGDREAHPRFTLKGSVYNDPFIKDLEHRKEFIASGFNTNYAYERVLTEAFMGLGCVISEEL
Method: as §1

[4] = biological target: T4, YDR428c (activation domain fusion prey) (UniProt Q04066 1-261)
T4 construct: not shown: not described
T4 sequence (looked up): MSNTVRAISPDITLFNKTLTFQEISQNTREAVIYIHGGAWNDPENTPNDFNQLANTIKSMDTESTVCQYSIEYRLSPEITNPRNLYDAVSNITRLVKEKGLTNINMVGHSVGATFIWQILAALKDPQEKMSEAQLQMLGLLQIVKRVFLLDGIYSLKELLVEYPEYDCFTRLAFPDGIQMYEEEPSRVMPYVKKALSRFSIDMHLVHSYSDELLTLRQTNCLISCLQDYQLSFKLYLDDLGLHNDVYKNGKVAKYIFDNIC
Method: as §1

[5] = biological target: T5, Ssn8 (activation domain fusion prey) (UniProt P47821 1-323)
T5 construct: also called Srb11; not shown: not described
T5 sequence (looked up): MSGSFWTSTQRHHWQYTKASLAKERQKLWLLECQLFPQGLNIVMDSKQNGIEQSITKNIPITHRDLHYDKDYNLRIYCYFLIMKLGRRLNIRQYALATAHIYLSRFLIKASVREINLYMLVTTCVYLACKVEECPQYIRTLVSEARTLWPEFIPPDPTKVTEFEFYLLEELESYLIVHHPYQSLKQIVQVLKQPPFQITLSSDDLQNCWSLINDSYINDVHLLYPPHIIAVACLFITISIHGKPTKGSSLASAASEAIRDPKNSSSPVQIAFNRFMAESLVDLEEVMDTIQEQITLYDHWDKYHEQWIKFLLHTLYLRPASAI
Method: as §1

B1: CTD fused to the wildtype Kin28 (pMK500) (other)
chain: MKLLSSIEQACDICRLKKLKCSKEKPKCAKCLKNNWECRYSPKTKRSPLTRAHLTEVESRLERLEQLFLLIFPREDLDMILKMDSLQDIKALLTGLFVQDNVNKDAVTDRLASVETDMPLTLRQHRISATSSSEESSNKGQRQLTVSNYLFDDEDTPPNPKKEIELENLYFQGEFQYSPTSPSYSLTSPSYSPTSPSLTTMAMKVNMEYTKEKKVGEGTYAVVYLGCQHSTGRKIAIKEIKTSEFKDGLDMSAIREVKYLQEMQHPNVIELIDIFMAYDNLNLVLEFLPTDLEVVIKDKSILFTPADIKAWMLMTLRGVYHCHRNFILHRDLKPNNLLFSPDGQIKVADFGLARAIPAPHEILTSNVVTRWYRAPELLFGAKHYTSAIDIWSVGVIFAELMLRIPYLPGQNDVDQMEVTFRALGTPTDRDWPEVSSFMTYNKLQIYPPPSRDELRKRFIAASEYALDFMCGMLTMNPQKRWTAVQCLESDYFKELPPPSDPSSIKIRNVMAIPGGGRIFYPYDVPDYAGYPYDVPDYAGSYPYDVPDYAAQCGRSS
modifications: CTD phosphorylated at the fifth residue (Ser5) by the tethered wildtype Kin28
notes: also called CTD-Kin28 (wildtype); phosphorylated CTD
B1: binds [1]; binds [2]; binds [3]. B1: binds [4]; binds [5].

B2: CTD fused to the mutant Kin28 (pDG502) (other)
chain: MKLLSSIEQACDICRLKKLKCSKEKPKCAKCLKNNWECRYSPKTKRSPLTRAHLTEVESRLERLEQLFLLIFPREDLDMILKMDSLQDIKALLTGLFVQDNVNKDAVTDRLASVETDMPLTLRQHRISATSSSEESSNKGQRQLTVSNYLFDDEDTPPNPKKEIELENLYFQGEFQYSPTSPSYSLTSPSYSPTSPSLTTMAMKVNMEYTKEKKVGEGTYAVVYLGCQHSTGRKIAIKEIKTSEFKDGLDMSAIRQVKYLQEMQHPNVIELIDIFMAYDNLNLVLEFLPTDLEVVIKDKSILFTPADIKAWMLMTLRGVYHCHRNFILHRDLKPNNLLFSPDGQIKVADFGLARAIPAPHEILTSNVVTRWYRAPELLFGAKHYTSAIDIWSVGVIFAELMLRIPYLPGQNDVDQMEVTFRALGTPTDRDWPEVSSFMTYNKLQIYPPPSRDELRKRFIAASEYALDFMCGMLTMNPQKRWTAVQCLESDYFKELPPPSDPSSIKIRNVMAIPGGGRIFYPYDVPDYAGYPYDVPDYAGSYPYDVPDYAAQCGRSS
notes: also called CTD-Kin28 mutant
B2: no binding [1]; no binding [2]; no binding [3]. B2: no binding [4]; no binding [5].

B3: Kin28 alone bait (pMK498) (other)
chain: MKLLSSIEQACDICRLKKLKCSKEKPKCAKCLKNNWECRYSPKTKRSPLTRAHLTEVESRLERLEQLFLLIFPREDLDMILKMDSLQDIKALLTGLFVQDNVNKDAVTDRLASVETDMPLTLRQHRISATSSSEESSNKGQRQLTVSNYLFDDEDTPPNPKKEIELENLYFQGEFQLTTMAMKVNMEYTKEKKVGEGTYAVVYLGCQHSTGRKIAIKEIKTSEFKDGLDMSAIREVKYLQEMQHPNVIELIDIFMAYDNLNLVLEFLPTDLEVVIKDKSILFTPADIKAWMLMTLRGVYHCHRNFILHRDLKPNNLLFSPDGQIKVADFGLARAIPAPHEILTSNVVTRWYRAPELLFGAKHYTSAIDIWSVGVIFAELMLRIPYLPGQNDVDQMEVTFRALGTPTDRDWPEVSSFMTYNKLQIYPPPSRDELRKRFIAASEYALDFMCGMLTMNPQKRWTAVQCLESDYFKELPPPSDPSSIKIRNVMAIPGGGRIFYPYDVPDYAGYPYDVPDYAGSYPYDVPDYAAQCGRSS
B3: no binding [1]; no binding [2]; no binding [3]. B3: no binding [4]; no binding [5].
